Experimental data published in the nanobody polyreactivity screen of Harvey et al. (2022).

Assay: yeast display, Sf9 membrane polyspecificity reagent, FACS + sequencing; frameworks hold sequencing errors
Procedure, shortened: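 In a synthetic yeast display library (Saccharomyces cerevisiae BJ5465), nanobody expression was induced with galactose for 36–48 hours. FACS gates were set low and high (top ~1%) using anti-HA fluorescence for expression and streptavidin fluorescence for binding of the Sf9 membrane reagent. Each polyreactivity label is drawn from the gate of origin.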

Row | Sequence | polyreactivity (PSR sort gate)
1 | QVHLVESGGGLVQAGGSLRLSCAASGRLFGVYVMGWYRQAPGKERELVAAISWSGSHTYYADSVKGRFTISRDNAKNTVYLQMNSLKPEDTEVYYCNADSYPDYTGPGLDWYDYWGQGTQVTVSS | low polyreactivity
2 | QVHLVESGGGLVQAGGSLRLSCAASGRNFDNKAMGWYRQAPGKERELVATLSRNGGSTYYADSVKGRFTISRDNAKNTVYLQINRLKRDDTAVYYCNKRTRFIPSFDYWGQGTQVTVSS | low polyreactivity
3 | QVHLVESGGGLVQAGGSLRLSCAASGRPFSKYTMGWDRQAPGKERELVAVISRSGTRTYYADSVKGRFTISRDNAKNTVYLQMNSLKPEDTAVYYCAAKDERRSFGMGYWGQGTQVTVSS | high polyreactivity
4 | QVHLVESGGGLVQAGGSLRLSCAASGRTFANYAMGWYRQAPGKERELVAAISFSTVSTYYADSVKGRFTISRDNAKNTVYLQMNSLKPEDTAVYYCAARRLGYYRKVKELDYWGQGTQVTVSS | high polyreactivity
5 | QVHLVESGGGLVQAGGSLRLSCAASGRTFAYNTMGWYRQAPGKERELVAAISSDGSTNYADSVKGRFTISRDNAKNTVYLQMNSLKPEDTAVYYCAKGEGTGYSDTQVYEHDYWGQGTQVTVSS | low polyreactivity
6 | QVHLVESGGGLVQAGGSLRLSCAASGRTFCYNAMGWYRPAPGKERELVAAITSSGGGTSYADSVKGRFTISRDNAMNTVYLQMNSLKPEDTAVSYCARVRRYPLRYNYWGQGTQLTVSS | high polyreactivity
7 | QVHLVESGGGLVQAGGSLRLSCAASGRTFDHNTMGWYRQAPGKERELVAAISWSGGTTYYADSVKGRFTISRDNAKNTVYLQMNSLKPEDTAVYYCAADRSPGSYGYQYDYWGQGTQVTVSS | low polyreactivity
8 | QVHLVESGGGLVQAGGSLRLSCAASGRTFDVYAMGWYRQAPGKERELVATITDSGGNTYYADSVKGRFTISRDNAKNTVYLQMNSLKPEDTAVYYCAADRIYPYYRWSGAHRSDVDYWGQGTQVTVSS | low polyreactivity
9 | QVHLVESGGGLVQAGGSLRLSCAASGRTFENNAMGWYRPAPGKESELVAAITVSGGSTYYADSVKGRFTLSRDNAKNTVDLQMNSLKPEDTAVYYCAIVGFGIPGGFYYWGEGTQVTVSS | low polyreactivity
10 | QVHLVESGGGLVQAGGSLRLSCAASGRTFGYYAMGWYRQAPGKERELVAAITRTGGSTHYADSVKGRFTISRDNAKNTVYLQMNSLKPEDTAVYYCAADKRGTVYLSSFWMDYWGQGTQVTVSS | low polyreactivity
11 | QVHLVESGGGLVQAGGSLRLSCAASGRTFPPYAMGGYRQAPGKERELVAAISIVGSTYYADSVKGRFTISRDNAKNTVYLQMNSLKPEDTAVYYCAADVAGYYKLYDYWGQGTQVTVSS | high polyreactivity
12 | QVHLVESGGGLVQAGGSLRLSCAASGRTFPYNAMGWYRQAPGKERELVDAISSGGSTNYADSVKGRFTISRDNAKNTVYLQMNSLKPEDTAVYYCATKYQRRPYRYSYWGQGTQVTVSS | low polyreactivity
13 | QVHLVESGGGLVQAGGSLRLSCAASGRTFRRYAMGWYRQAPGKERELVAAISYNGGRTYYADSVKGRFTISRDNAKNSVYLQMNILKPEDTAVYYCNAERGFSDYWGQGTQVTVSS | high polyreactivity
14 | QVHLVESGGGLVQAGGSLRLSCAASGRTFVPYVMGWYRQAPGKERELVATINWSGGSTYYADSVKGLFTISRDNAKNTVYLQMNSLKPEDTAVYYCAARYYSDWFYYLFRYDYLGQGTQVTVSS | low polyreactivity
15 | QVHLVESGGGLVQAGGSLRLSCAASGRTFVRYAMGWYRQAPGKERELVARITARGTSTYYADSVKGRFTISRDNAKNTVYLQMNRLKPEDTAVYYCNKVRTFRDKSRYDYWGQGTQVTVSS | low polyreactivity
16 | QVHLVESGGGLVQAGGSLRLSCAASGRTFWYYAMGWYRPAPGKERELVAAITRTGGSTYYADSVKGRFTISRDYAKNTVYLQMNSLKPEDTAVYYCARKYSYPVVAPSDYYWGQGTQVTVSS | high polyreactivity
17 | QVHLVESGGGLVQAGGSLRLSCAASGRTFYDNAMVWYRQAPGKERELVAAISKRGSSTYYADSVKGRFTISRYTAKNSVYLEMNSLKPEDTAVYYCAADSLLGWSVEYWGKGTQVTVSS | high polyreactivity
18 | QVHLVESGGGLVQAGGSLRLSCAASGRTFYGYDMGWYRQAPGKERELVATISSGGSTNYADSVKGRFTISRDYAKNTVYLQMNSLKPEDTAVYYCNADSYEYPSPYRYYYLGYDYWGQGTQVTVSS | low polyreactivity
19 | QVHLVESGGGLVQAGGSLRLSCAASGRTFYSNAMGWYRQPPGKERELVAAINSGGDTYYADSVKGRFTISRDNAKNTVYLQMNSLTPEDTAVYYCADDYYWEMDSWGQGTQVTVSS | low polyreactivity
20 | QVHLVESGGGLVQAGGSLRLSCAASGSIFAVYAMGWYRQEPGKERELVAVITRSGGSTYYADSVKGRFTISRDNAKKTVYLQLYSLKPEDTAVYYCAARSSYLLRYDYWGQGTQVTVSS | high polyreactivity
21 | QVHLVESGGGLVQAGGSLRLSCAASGSIFDVNAMGWYRQSPGKERELVASIDNSGTTNYADSVKGRFTISRDNAKNTVYLLMNSLKPEDTAVYYGAAEYESGDYWGQGTQVTVSS | low polyreactivity
22 | QVHLVESGGGLVQAGGSLRLSCAASGSIFDYYDMGWYRQAPGKERELVASITWSGGRTSYADSVKGRFTISRDNAKNTVYLQMNSLKPEDNAVYYCNARGFRGEYDYWVQGTQVTVSS | high polyreactivity

Row | Sequence | polyreactivity (PSR sort gate)
23 | QVHLVESGGGLVQAGGSLRLSCAASGSIFGTYAMGWYRQPPGKESELVAAITSSGGSTYYADSVKGRFTISRDNAKNTVYLQMNSLKPEDTAVYYCAAYLRIRVGVPVRTYYYWGQGTQVTVSS | high polyreactivity
24 | QVHLVESGGGLVQAGGSLRLSCAASGSIFKPYAMGWYRKAPGKERELVAAISGIGGSTYYADSVKGRFTISRDNAKNTVYLQMNSLKPEDTAVYYCAADTFFKIFSEYNYCGQGTQVTVSS | high polyreactivity
25 | QVHLVESGGGLVQAGGSLRLSCAASGSIFRYYAMGCYRQAPGKERELVAGITWSSGSTYYADYVKGRFTISRDKAKNTVYFQMNSLKPEDTAVSYCIADPANPFVTEFEYWGQGNQVTVSS | high polyreactivity
26 | QVHLVESGGGLVQAGGSLRLSCAASGSIFSDYAMGWYRQAPGKERELVAAITWSGGSTYYADSVKGRFTISRDNAKNTVYLQMNSLKPEDTAVYYCAARFGKVRDFRYAYLLEYDYWGQGTQVTVSS | low polyreactivity
27 | QVHLVESGGGLVQAGGSLRLSCAASGSIFSVNDMGWYRQAPGKERELVAAISSGGSTNYADSVKGRFTISRDNAKNTVSLQMNSLKPEDTAVYYCAADFYVVYWGTYSVGYDYWGQGTQVTVSS | low polyreactivity
28 | QVHLVESGGGLVQAGGSLRLSCAASGSIFTRYTMGWYRQAPGKERELVAAITRSGGSTYYADSVKGRFTISRDNAKNTVYLQMNSLKPEDTAVYYCAARVRLATGARDYWGQGTQVTVSS | high polyreactivity
29 | QVHLVESGGGLVQAGGSLRLSCAASGSIFVAYAMGWYRQAPGKERELVAAISSSGGTTYYADSVKGRFTISRDNAMNTVYLQMNSLKPEDTAVYYCAARDYKFYYWGQGSQVTVSS | high polyreactivity
30 | QVHLVESGGGLVQAGGSLRLSCAASGSIFYVYAMGWYRQAPGKERELVAAITSSGTTNYADSVKGRFTISRDNAKNTVYLQMNSLKPEDTAVYYCAADPDSGQVPFDYWGQGTQVTVSS | low polyreactivity
31 | QVHLVESGGGLVQAGGSLRLSCAASGSIFYVYAMVWYRQAPGKERELVAAITWSGGSTYYADSVKGRFTISRDNAKNTVYLQMNSLNPEDTAVYYCAADEGYDYPYYYWGQGTQVSVSS | high polyreactivity
32 | QVHLVESGGGLVQAGGSLRLSCAASGSIFYYYAMGWYRQAPGKEREFVAAINWSGGITYYADSVKGRFTISRDNAKNTVYLQMNSLKPEDTAVFYCAAPVRGYSYGKYDYWGQGTQVTVSS | high polyreactivity
33 | QVHLVESGGGLVQAGGSLRLSCAASGSIIGKYAMGWYRQAPGKERELVADITNSGGSTYYADSVKGRFTISRDNAKNTVYLQMNSLKPEDTAVYYCAADYLYPPYYEFYFWGQGTQVTVSS | low polyreactivity
34 | QVHLVESGGGLVQAGGSLRLSCAASGSILARYAMGWYRQAPRKERELVASITTSGDSTYYADSVKGRFTISRDNAKNTVSLQMNSLIPEDTAVYYCARRRWGWGYQHFPYYYWGQGTQVTVSS | high polyreactivity
35 | QVHLVESGGGLVQAGGSLRLSCAASGSILDEYAMGWYRQPPGKESELVAAISSSGTSTYYADSVKRRFTISRDNAKNTDYLQMNSLKPEDTAVYDCARVKQHRSHRVPGDDYWGQGTQVTVSS | low polyreactivity
36 | QVHLVESGGGLVQAGGSLRLSCAASGSIYHGNAMGWYRQAPGKERELVATISSGGSTYYADSLKVRFTISRDNAKNTVYLQMNSLKPEDTAVYYCAAERFWPYKSYYRGQGTQVTVSS | low polyreactivity
37 | QVHLVESGGGLVQAGGSLRLSCAASGSIYVNTMGWYRPAPGKERELVAGISRSTGRTYYADSVKGRFTISRDNAKNTVYLQMNSLKPEDTAVYYCNTVPWRRWGYDYWGQGTQVTVSS | high polyreactivity
38 | QVHLVESGGGLVQAGGSLRLSCAASGSLFYYNAMGWYRPAPGKERDLVAAINSNGGSTYYADTVKGRFTISRDNAKNTVYLQMNSLKPEDTAVYSSAAKYYFNWHRQGYDYWGQGTQVTVSS | high polyreactivity
39 | QVHLVESGGGLVQAGGSLRLSCAASGSTCYWYTMGWYRKAPGKERELVARISSSGSTNYADSVKGRFTISRDNEKNTVYLLMNILKAEDTAVYYCNIDWFYRGYDYWGQGTQVTVSS | high polyreactivity
40 | QVHLVESGGGLVQAGGSLRLSCAASGSTFDVYAMGWYRQAPRKERELVAVINTSGTRTYYADSVKGRFTISRDNAKNSVYLLMNSLKPEDTAVSYCNAGGNLEMIYWGQGTQVTVSS | low polyreactivity
41 | QVHLVESGGGLVQAGGSLRLSCAASGSTFETNAMGWYRQSPGKERELVAAIRWSTGNTYYADSVKGRFTISRDNAKNTVYLQMNSLKPEDTAVYYCAAYKGKHYKEGYWGQGTQVTVSS | low polyreactivity
42 | QVHLVESGGGLVQAGGSLRLSCAASGSTFFQYAMGWYRQAPGKERELVAAISSRGGRTYYADSVKGRFTISRDNAKNTVYLQMNRLKPEDTAVYYCATNRSVSYPYDGYYYWGQGTQVTVSS | high polyreactivity
43 | QVHLVESGGGLVQAGGSLRLSCAASGSTFKRNAMGWYRQAPGKERELVAAITQRGGRTYYADSVKGRFTISRDNAKNTVYLQMNSLKPEDTAVYYCAVDSQTANDYDYWGQGTEVTVSS | low polyreactivity
